Test results taken from paper PMC9087282, “The W-Acidic Motif of Histidine Kinase WalK Is Required for Signaling and Transcriptional Regulation in Streptococcus mutans” (Frontiers in Microbiology, 2022).
Numbering of substitutions follows the chain as printed.

How the values were obtained:
[1] = biological target: GST fusion protein with full-length S. aureus WalR (1–233) (Staphylococcus aureus NCTC8325) (UniProt Q2G2U6)
[2] = biological target: S. mutans WalR full-length (Streptococcus mutans UA159); test: ITC; MicroCal iTC200, 25°C; 500 μM WalK (196–450) WT or CTT mutant in the syringe, 20 μM full-length WalR in the cell; 20 mM Tris-HCl pH 8.0, 200 mM NaCl, 20% glycerol
[3] = biological target: T1, S. aureus WalK (364–608) D605A (Staphylococcus aureus NCTC8325, UniProt Q2G2U4 364-608, D605A); test: pull-down; GST-tagged WalR protein held on glutathione agarose beads, His-tagged WalK as prey, equal molar amounts (~3 μl of 50 μM each) in 1 ml of 20 mM Tris-HCl pH 8.0, 200 mM NaCl, 5% glycerol, 2 mM EDTA, 2 h at 4°C; SDS-PAGE stained with CBB; conditions: both partners purified
T1 construct: source: E. coli BL21 (DE3), purified (Ni-NTA, Superdex 200); not shown: His tag, N-terminal, kept
T1 sequence: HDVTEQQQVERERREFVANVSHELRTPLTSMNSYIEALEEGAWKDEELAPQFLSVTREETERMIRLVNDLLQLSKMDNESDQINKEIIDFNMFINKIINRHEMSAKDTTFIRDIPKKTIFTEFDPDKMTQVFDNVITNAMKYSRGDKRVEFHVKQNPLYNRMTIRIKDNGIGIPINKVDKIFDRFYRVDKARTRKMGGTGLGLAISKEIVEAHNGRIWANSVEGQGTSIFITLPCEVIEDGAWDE

[4] = biological target: T2, S. aureus WalK (364–608) WT (Staphylococcus aureus NCTC8325, UniProt Q2G2U4 364-608); test: as above; conditions: both partners purified
T2 construct: cloned in pET-His; source: E. coli BL21 (DE3), purified (Ni-NTA, Superdex 200); not shown: His tag, N-terminal, kept
T2 sequence (looked up): T1 sequence with A242D

[5] = biological target: WalR DBD (Streptococcus mutans UA159, UniProt Q93MY4 129-235); test: EMSA; 20 uM DNA; complex released by WalK 196-450 (W443A and delta-tail WalK compete less); conditions: protein: recombinant; chain copies: 2
[6] = biological target: WalR full-length (Streptococcus mutans UA159, UniProt Q93MY4 1-235); test: EMSA; 20 uM DNA; complex released by increasing WalK 196-450; conditions: protein: recombinant; chain copies: 2
[7] = biological target: WalK (196-450) (Streptococcus mutans UA159, UniProt Q8DT64 196-450); test: EMSA; conditions: protein: recombinant; tags: N-terminal His

S. aureus WalK (364–608) W606A (from UniProt Q2G2U4 364-608) (domain or fragment)
phosphotransferase activity of S. aureus WalK (364–608) with WalR (loss of phospho-WalK, at 30 min) [1]: 2 ×

S. mutans WalK (196–450) WT (domain or fragment)
Kd [2]: 1.21 µM

S. aureus WalK (364–608) D607A (from UniProt Q2G2U4 364-608) (domain or fragment)
phosphotransferase activity of S. aureus WalK (364–608) with WalR (loss of phospho-WalK, at 30 min) [1]: 2 ×

B1: GST fusion protein with full-length S. aureus WalR (1–233) (natural protein, Staphylococcus aureus NCTC8325, UniProt Q2G2U6 1-233, looked up)
chain: MARKVVVVDDEKPIADILEFNLKKEGYDVYCAYDGNDAVDLIYEEEPDIVLLDIMLPGRDGMEVCREVRKKYEMPIIMLTAKDSEIDKVLGLELGADDYVTKPFSTRELIARVKANLRRHYSQPAQDTGNVTNEITIKDIVIYPDAYSIKKRGEDIELTHREFELFHYLSKHMGQVMTREHLLQTVWGYDYFGDVRTVDVTIRRLREKIEDDPSHPEYIVTRRGVGYFLQQHE
notes: cloned in pET-GST; also called GST-WalR; source: E. coli BL21 (DE3), purified (glutathione agarose, Superdex 200); not shown: GST, N-terminal, kept
binding result [3]: binds
binding result [4]: binds

B2: gtfC promoter 25-mer (dsDNA)
DNA 1: GTTTGTTATAAAAGTGTTACAATAC
DNA 2: GTATTGTAACACTTTTATAACAAAC
binding result [5]: binds
binding result [6]: binds
binding result [7]: no binding
